Source: publication PMC9378758

Target: Chikungunya virus (CHIKV) strain S27 E1 glycoprotein (Chikungunya virus strain S27)
Test: cryo-EM structure; cryo-ET with sub-tomogram averaging (PEET) of 591 protein spikes on liposomes after completed fusion with CHIKV at low pH, late time points, room temperature; 27.2 Å at 0.5 FSC; 3-fold symmetry seen before it was imposed

Chikungunya virus (CHIKV) strain S27 E1 glycoprotein (natural protein)
stoichiometry N: 3
